To fix the notation:
B1: Hairpin Ribozyme (parent)
chain: GUCCUCUUUCACGUGCGCGUGAAAGAGAGAAGUGAACCAGAGAAACACACGUUGUGGUAUAUUACCUGGUA

These results are taken from the RNAGym collection of RNA variant scans (doi:10.7554/elife.80360).

Variants of B1 are the subject of this data set. Description: self-cleavage, relative activity (ratio to wild type); higher = more cleavage; co-transcriptional.
For the variant GUCUUCUUUCACGUGCGCGUGAAAGUGAGAAGUGAACCAGAGAAACACACGUUGUGGUAUAUUACCUGGUA, the self-cleavage turned out to be 0.156.
Next, GUCUUCUUUCCCGUGCGCGUGAAAGAGAGAAGUGAACCAGAGAAACACACGUUGUGGUAUAUUACCUGGUA: 0.191.
In the case of GUCUUCUUUCACCUGCGCGUGAAAGAGAGAAGUGAACCAGAGAAACACACGUUGUGGUAUAUUACCUGGUA it was 0.282; in that of GUCUUCUUUCACUUGCGCGUGAAAGAGAGAAGUGAACCAGAGAAACACACGUUGUGGUAUAUUACCUGGUA, 0.314.
Next, GUCUUCUUUCACGUGCGCGUGAAAGAGAGAAGUGAACCAGAGAAACACACGUUGUGGCAUAUUACCUGGUA: 0.495; GUCUUCUUUCACGUGCGCGUGAAAGAGAGAAGUGAACCGGAGAAACACACGUUGUGGUAUAUUACCUGGUA: 0.122; GUCUUCUUUCACGUGCGCGUGAAAGAGAGAAGUGAACCCGAGAAACACACGUUGUGGUAUAUUACCUGGUA: 0.251.
In the case of GUCUUCUUUCACGUGCGCGUGAAAGAGAGAAGUGAAGCAGAGAAACACACGUUGUGGUAUAUUACCUGGUA, the self-cleavage was determined as 0.147.
Turning to GUCUUCUUUCACGUGCGCGUGAAAGAGAGAAGUGAACCAGAGCAACACACGUUGUGGUAUAUUACCUGGUA, the self-cleavage is 0.128.
In the case of GUCUUCUUUCACGUGCGCGUGAAAGAGAGAAAUGAACCAGAGAAACACACGUUGUGGUAUAUUACCUGGUA it was 0.196.
On to GUCGUCUUUCACGUGCGCGUGAAAGAGAGAAGUGAACCAGAGAAACACACGUUGUGGAAUAUUACCUGGUA, for which the self-cleavage stood at 0.108.
In the case of GUCGUCUUUCACGUGCGCGUGAAAGAGAGAAGUGAACCAGAGAAACACACGUUGUGGCAUAUUACCUGGUA it was 0.403.
Take GUCGUCUUUCACGUGCGCGUGAAAGAGAGAAGUGAACCAGAGAAACACACGUUGAGGUAUAUUACCUGGUA: the self-cleavage was found to be 0.119.
GUCGUCUUUCACGUGCGCGUGAAAGAGAGAAGUGAACCAGAGAAACACACGUUGCGGUAUAUUACCUGGUA: the self-cleavage worked out at 0.122.
In the case of GUCUUCUUUCACGUGCGCGUGAAAGAGAGAAGUGAACCAGAGAAAUACACGUUGUGGUAUAUUACCUGGUA it was 0.152; in that of GUCGUCUUUCACGUGCGCGUGAAAGAGAGAAGUGAACCAGAGAAACACACGUUGUGGUAUAAUACCUGGUA, 0.191.
Next, GUCUUCUUUCACGUGCGCGUGAAAGAGAGAAGUGAACCAGAGAAACGCACGUUGUGGUAUAUUACCUGGUA: 0.0924; GUCUUCUUUCACGUGCGCGUGAAAUAGAGAAGUGAACCAGAGAAACACACGUUGUGGUAUAUUACCUGGUA: 0.126; GUCUUCUUUCACGUGCGCGUGAAACAGAGAAGUGAACCAGAGAAACACACGUUGUGGUAUAUUACCUGGUA: 0.11.
Next, GUCUUCUUUCACGUGCGCGUGAAAGAGAGAGGUGAACCAGAGAAACACACGUUGUGGUAUAUUACCUGGUA: 0.0741; GUCUUCUUUCACGUGGGCGUGAAAGAGAGAAGUGAACCAGAGAAACACACGUUGUGGUAUAUUACCUGGUA: 0.243.
For the variant GUCUUCUUUCACGUGCGCGUGAAAGAGAGAAGUGAACCAGAGAAACACACGUAGUGGUAUAUUACCUGGUA, the self-cleavage amounted to 0.358.
Next, GUCGUCUUUCACGUGCGCGUGAAAGAGAGAAGUGAACCAGAGAAACACACGUCGUGGUAUAUUACCUGGUA: 0.264; GUCGUCUUUCACGUGCGCGUGAAAGAGAGAAGUGAACCAGAGAAACACACGUGGUGGUAUAUUACCUGGUA: 0.117; GUCUUCUUUCACGUGCGCGUGAAAGAGUGAAGUGAACCAGAGAAACACACGUUGUGGUAUAUUACCUGGUA: 0.178.
For GUCUUCUUUCACGUGCGCGUAAAAGAGAGAAGUGAACCAGAGAAACACACGUUGUGGUAUAUUACCUGGUA, the self-cleavage amounted to 0.389.
As to GUCUUCUUUCACGUGCGCGUGAAAGAGAGAAGUGAACCAUAGAAACACACGUUGUGGUAUAUUACCUGGUA, the self-cleavage was 0.0478.
In the case of GUCUUCUUACACGUGCGCGUGAAAGAGAGAAGUGAACCAGAGAAACACACGUUGUGGUAUAUUACCUGGUA it was 0.202; in that of GUCUUCUUUCACGUGCGCGUGAAAGAGAGAAGUGAACCAGAGAAACACAGGUUGUGGUAUAUUACCUGGUA, 0.11; in that of GUCUUCUUUCACGUGCGCGUGAAAGAGAGAAGUGAACCAGAGAAACACACGUUGUGGUAUAUUACCUGGUC, 0.622.
GUCUUCUUUCACGUGCGCGUGAAAGAGAGAAGUCAACCAGAGAAACACACGUUGUGGUAUAUUACCUGGUA: the self-cleavage turned out to be 1.03.
In the case of GUCUUCUUUCACGUGCGCGUGAAAGAGAGAAGUUAACCAGAGAAACACACGUUGUGGUAUAUUACCUGGUA, the self-cleavage turned out to be 1.12.
Turning to GUCUUCUUUCACGUGCGCGUGAAAGAGAGAAGUGAACCAGAGAAACAAACGUUGUGGUAUAUUACCUGGUA, the self-cleavage amounted to 0.114.
Take GUCUUCUUUCACGUGCGCGUGAAAGAGAGAAGUGAACCAGAGAAACAGACGUUGUGGUAUAUUACCUGGUA: the self-cleavage stood at 0.123.
Next, GUCUUCUUUCACGUGCGCGUGGAAGAGAGAAGUGAACCAGAGAAACACACGUUGUGGUAUAUUACCUGGUA: 0.236; GUCUUCUUUCACGUGCGCGUGAAAGAGAGAAGUGAACCAGAGAAACACACGUUGUGGUAUAUCACCUGGUA: 0.191.
Turning to GUCUUCUUUCACGUGCGCGUGAAAGAGAGAAGUGAACCAGAGAAACACACGUUGUGGUAUAUAACCUGGUA, the self-cleavage turned out to be 0.157.
GUCUUCUUUCACGUGCGCGUGAAAGAGAGAAGCGAACCAGAGAAACACACGUUGUGGUAUAUUACCUGGUA: the self-cleavage came to 0.237.
